In patent US7026292B1, “Compositions and therapeutic methods using morphogenic proteins and stimulatory factors” (Stryker Corporation, priority 1995, dated 2006):
Numbering of substitutions follows the chain as printed. Like-named read-outs stand apart in the source and are kept apart here.

What was measured:
[1] = cited from earlier work
[2] = tested on: FRC (fetal rat calvarial) cells; assay: Alkaline phosphatase (AP) activity assay in FRC cells; type: cell-based
Description: A preferred assay for testing potential MPSFs with OP-1 for osteogenic activity is the alkaline phosphatase (AP) enzymatic assay. AP is an osteoblast differentiation marker in primary osteoblastic FRC. (fetal rat calvarial) cells. The OP-1-stimulated AP activity is the result of increased steady-state AP mRNA levels as measured by Northern analysis. The procedure is generally as follows.
Primary osteoblast cell cultures were prepared from fetal rat calvaria using published procedures (M. A. Aronow et al., J. Cell Physiol., 143, pp. 213–221 (1990); T. K. McCarthy et al., J. Bone Miner. Res., 3, pp. 401–8 (1988)). Briefly, cells were harvested by sequential collagenase digestions of the calvarium and cells from digestions III to V were pooled. Fetal rat calvaria (FRC) cells were plated in complete medium (MEM, alpha; GIBCO/BRL, Grand Island, N.Y.) containing 10% fetal bovine serum, vitamin C (100 μg/ml), and antibiotics (100 U/ml penicillin, and […]). Cultures were incubated at 37° C. with 95% air/5% CO2 for several days to reach confluence. Cells were then subcultured for experimentations.
FRC cells were subcultured in 48-well plates (COSTAR, Cambridge, Mass.) in complete MEM medium with 10% fetal bovine serum until confluent in about 4 days. Confluent cells were rinsed with Hank's balanced salt solution (HBSS) and treated with serum-free α-MEM medium (with 0.1% BSA, 100 U/ml penicillin, and […]) containing the appropriate solvent vehicle (50% acetonitrile/0.1% trifluoroacetic acid for OP-1 treatment or 0.1N acetic acid for IGFI treatment) or recombinant human OP-1, or IGFI at the concentrations indicated. Solvent vehicle concentration in the culture medium never exceeded 0.1%. At the end of treatment, cells were lysed and total cellular alkaline phosphatase activity was measured (typically after 48 hours of treatment).
Total cellular alkaline phosphatase activity was determined using a commercial assay kit (Sigma, St. Louis, Mo.). Cell lysates were prepared by aspirating the medium from the 48-well plate, rinsing the cells with ice-cold PBS, and lysing the cells with 0.05% Triton X-100 and sonication for 60 sec. Alkaline phosphatase activity in the lysates was measured in 2-amino-2-methyl-1-propanol buffer (pH 10.3) with p-nitrophenyl phosphate as substrate at 37° C. Reactions were performed in 96-well plates for 1–2 h. Following color development, reactions were terminated with 0.5N NaOH. Absorbance of the reaction was measured at 405 nm using a Hewlett Packard Genenchem automatic plate reader. Total protein level in the lysates was measured according to Bradford (M. Bradford, Anal. Biochem., 72, pp. 248–54 (1976)) using bovine serum albumin as a standard. Alkaline phosphatase activity was expressed as nmol p-nitrophenol liberated per microgram of total cellular protein. […]
At least four experimental groups were tested: control cells treated with no OP-1 or MPSF; group I cells treated with increasing concentrations of MPSF alone; […]; and group III cells, […] concentrations of the MPSF.

[3] = Osteogenic activity of refolded E. coli-expressed constructs incorporated in a matrix; type: in vivo; settings: refolded constructs from SDS gel slices incorporated in a matrix; histological examination
Description: Samples of the various purified constructs and various mixtures of pairs of the constructs refolded together were applied to SDS polyacrylamide gels, separated by electrophoresis, sliced, incorporated in a matrix as disclosed below, and tested for osteogenic activity.

[4] = 200 nM PTH + 200 ng/ml OP-1, 48 hours (FIG. 9)

B1: OP-1: osteogenic protein OP-1 (BMP-7), morphogenic protein of the BMP family; recombinant human OP-1 used in FRC assays (protein, UniProt P18075 293-431, looked up)
Bone morphogenetic protein 7: STGSKQRSQNRSKTPKNQEALRMANVAENSSSDQRQACKKHELYVSFRDLGWQDWIIAPEGYAAYYCEGECAFPLNSYMNATNHAIVQTLVHFINPETVPKPCCAPTQLNAISVLYFDDSSNVILKKYRNMVVRACGCH
Question: For B1, which Osteogenic activity ([1]; deglycosylated protein, about 27 kD) is on record?
Answer: has osteogenic activity

Question: What about the Osteogenic activity ([1]; native 30–35 kD protein in the reduced state) of the same molecule?
Answer: no detectable osteogenic activity

Question: What about the “Stimulation of AP activity above vehicle-treated control culture” value ([2]; OP-1 500 ng/ml, 48 hours (FIG. 2)) of the same molecule?
Answer: 1.6 fold

B2: PTH: parathyroid hormone, purchased from Sigma (protein, UniProt P01270 32-115, looked up)
Parathyroid hormone: SVSEIQLMHNLGKHLNSMERVEWLRKKLQDVHNFVALGAPLAPRDAGSQRPRKKEDNVLVESHEKSLGEADKADVNVLTKAKSQ
modifications: Parathyroid hormone
notes: parathyroid hormone, purchased from Sigma
Question: With B2 as the molecule, how does the “Level of AP activity relative to cells treated with OP-1 alone” value [2, 4] read?
Answer: about two-fold

Question: What about the “Level of AP activity relative to control cells” value [2, 4] of the same molecule?
Answer: about five-fold

Question: And the “MPSF function in concert with OP-1 (figure title)” value ([2]; AP activity in FRC cells, OP-1 200 ng/ml (FIGS. 5–10))?
Answer: is a MPSF in concert with OP-1

Question: And the “Effect on OP-1-induced stimulation of AP activity” value ([2]; PTH 25 and 100 nM + 200 ng/ml OP-1, 48 hours (FIG. 9))?
Answer: no effect

Question: What about the “Stimulation of AP activity by PTH alone” value ([2]; PTH 25–200 nM alone, 48 hours (FIG. 9)) of the same molecule?
Answer: did not stimulate AP activity

Question: What about the “Effect of PTH on AP activity induced by the OP-1/IGF-I combination” value ([2]; PTH at least about 50 nM + 200 ng/ml OP-1 + 25 ng/ml IGF-1) of the same molecule?
Answer: significantly increased

B3: COP5: synthetic consensus osteogenic protein, Seq. ID No. 2 (protein)
chain: LYVDFSDVGWDDWIVAPPGYQAFYCHGECPFPLADHFNSTNHAVVQTLVNSVNSKIPKACCVPTELSAISMLYLDENEKVVLKYNQEMVVEGCGCR
Question: With B3 as the molecule, how does the Osteogenic activity [3] read?
Answer: induce osteogenesis

B4: COP7: synthetic consensus osteogenic protein, Seq. ID No. 3 (protein)
chain: B3 chain with D11N, Q21H, F37L
Question: For B4, which Osteogenic activity [3] is on record?
Answer: induce osteogenesis
